Reference: patent US20210388087A1 (Chugai, published 2021)
Positions count from the first letter of the chain named. Numbers in names are those of the source.

B1: CE115HA000 Y55D one-arm antibody (antibody, human IgG1, kappa, L234A L235A, N297A, name in Kabat numbering)
heavy: QVQLVESGGGVVQPGRSLRLSCAASGFTFSNAWMHWVRQAPGKGLEWVAQIKAKSNNDATYYAESVKGRFTISRDDSKNSLYLQMNSLKTEDTAVYYCRYVHYGAYYGVDAWGQGTTVTVSSASTKGPSVFPLAPSSKSTSGGTAALGCLVKDYFPEPVTVSWNSGALTSGVHTFPAVLQSSGLYSLSSVVTVPSSSLGTQTYICNVNHKPSNTKVDKKVEPKSCDKTHTCPPCPAPEAAGGPSVFLFPPKPKDTLMISRTPEVTCVVVDVSHEDPEVKFNWYVDGVEVHNAKTKPREEQYASTYRVVSVLTVLHQDWLNGKEYKCKVSNKALPAPIEKTISKAKGQPREPQVYTLPPSRCELTKNQVSLSCAVKGFYPSDIAVEWESNGQPENNYKTTPPVLDSDGSFFLVSKLTVDKSRWQQGNVFSCSVMHEALHNHYTQKSLSLSPDYKDDDDK
chain: EPKSSDKTHTCPPCPAPELLGGPSVFLFPPKPKDTLMISRTPEVTCVVVDVSHEDPEVKFNWYVDGVEVHNAKTKPREEQYNSTYRVVSVLTVLHQDWLNGKEYKCKVSNKALPAPIEKTISKAKGQPREPQVCTLPPSRDELTKNQVSLWCLVKGFYPSDIAVEWESNGQPENNYKTTPPVLDSDGSFFLYSKLTVDKSRWQQGNVFSCSVMHEALHNRYTQKSLSLSP
light: DIVMTQSPLSLPVTPGEPASISCRSSQSLVHSNRNTYLHWYQQKPGQAPRLLIYKVSNRFSGVPDRFSGSGSGTDFTLKISRVEAEDVGVYYCGQGTQVPYTFGQGTKLEIKRTVAAPSVFIFPPSDEQLKSGTASVVCLLNNFYPREAKVQWKVDNALQSGNSQESVTEQDSKDSTYSLSSTLTLSKADYEKHKVYACEVTHQGLSSPVTKSFNRGEC
B2: CE115HA000 Y55G one-arm antibody (antibody, human IgG1, kappa, L234A L235A, N297A, name in Kabat numbering)
heavy: B1 heavy with D58G
chain: B1 chain
light: B1 light
B3: CE115HA000 Y55S one-arm antibody (antibody, human IgG1, kappa, L234A L235A, N297A, name in Kabat numbering)
heavy: B1 heavy with D58S
chain: B1 chain
light: B1 light
B4: CE115HA000 Y59A one-arm antibody (antibody, human IgG1, kappa, L234A L235A, N297A, name in Kabat numbering)
heavy: B1 heavy with D58Y, Y62A
chain: B1 chain
light: B1 light
B5: CE115HA000 Y100K one-arm antibody (antibody, human IgG1, kappa, L234A L235A, N297A, name in Kabat numbering)
heavy: B1 heavy with D58Y, Y106K
chain: B1 chain
light: B1 light
B6: CE115HA000 Y100D one-arm antibody (antibody, human IgG1, kappa, L234A L235A, N297A, name in Kabat numbering)
heavy: B1 heavy with D58Y, Y106D
chain: B1 chain
light: B1 light
B7: CE115HA000 Y100A one-arm antibody (antibody, human IgG1, kappa, L234A L235A, N297A, name in Kabat numbering)
heavy: B1 heavy with D58Y, Y106A
chain: B1 chain
light: B1 light
B8: CE115HA000 Y97R one-arm antibody (antibody, human IgG1, kappa, L234A L235A, N297A, name in Kabat numbering)
heavy: B1 heavy with D58Y, Y103R
chain: B1 chain
light: B1 light
B9: CE115HA000 Y97P one-arm antibody (antibody, human IgG1, kappa, L234A L235A, N297A, name in Kabat numbering)
heavy: B1 heavy with D58Y, Y103P
chain: B1 chain
light: B1 light
B10: CE115HA000 Y100L one-arm antibody (antibody, human IgG1, kappa, L234A L235A, N297A, name in Kabat numbering)
heavy: B1 heavy with D58Y, Y106L
chain: B1 chain
light: B1 light
B11: CE115HA000 Y100W one-arm antibody (antibody, human IgG1, kappa, L234A L235A, N297A, name in Kabat numbering)
heavy: B1 heavy with D58Y, Y106W
chain: B1 chain
light: B1 light
B12: CE115HA000 Y97G one-arm antibody (antibody, human IgG1, kappa, L234A L235A, N297A, name in Kabat numbering)
heavy: B1 heavy with D58Y, Y103G
chain: B1 chain
light: B1 light
B13: CE115HA000 Y100aD one-arm antibody (antibody, human IgG1, kappa, L234A L235A, N297A, name in Kabat numbering)
heavy: B1 heavy with D58Y, Y107D
chain: B1 chain
light: B1 light
B14: CE115HA000 Y100aF one-arm antibody (antibody, human IgG1, kappa, L234A L235A, N297A, name in Kabat numbering)
heavy: B1 heavy with D58Y, Y107F
chain: B1 chain
light: B1 light
B15: CE115HA000 Y100P one-arm antibody (antibody, human IgG1, kappa, L234A L235A, N297A, name in Kabat numbering)
heavy: B1 heavy with D58Y, Y106P
chain: B1 chain
light: B1 light
B16: CE115HA000 Y97D one-arm antibody (antibody, human IgG1, kappa, L234A L235A, N297A, name in Kabat numbering)
heavy: B1 heavy with D58Y, Y103D
chain: B1 chain
light: B1 light
B17: CE115HA000 Y58L one-arm antibody (antibody, human IgG1, kappa, L234A L235A, N297A, name in Kabat numbering)
heavy: B1 heavy with D58Y, Y61L
chain: B1 chain
light: B1 light
B18: CE115HA000 Y58N one-arm antibody (antibody, human IgG1, kappa, L234A L235A, N297A, name in Kabat numbering)
heavy: B1 heavy with D58Y, Y61N
chain: B1 chain
light: B1 light
B19: CE115HA000 Y59E one-arm antibody (antibody, human IgG1, kappa, L234A L235A, N297A, name in Kabat numbering)
heavy: B1 heavy with D58Y, Y62E
chain: B1 chain
light: B1 light
B20: CE115HA000 Y97A one-arm antibody (antibody, human IgG1, kappa, L234A L235A, N297A, name in Kabat numbering)
heavy: B1 heavy with D58Y, Y103A
chain: B1 chain
light: B1 light
B21: CE115HA000 Y100G one-arm antibody (antibody, human IgG1, kappa, L234A L235A, N297A, name in Kabat numbering)
heavy: B1 heavy with D58Y, Y106G
chain: B1 chain
light: B1 light
B22: CE115HA000 Y100aA one-arm antibody (antibody, human IgG1, kappa, L234A L235A, N297A, name in Kabat numbering)
heavy: B1 heavy with D58Y, Y107A
chain: B1 chain
light: B1 light
B23: CE115HA000 Y58K one-arm antibody (antibody, human IgG1, kappa, L234A L235A, N297A, name in Kabat numbering)
heavy: B1 heavy with D58Y, Y61K
chain: B1 chain
light: B1 light
B24: CE115HA000 Y58A one-arm antibody (antibody, human IgG1, kappa, L234A L235A, N297A, name in Kabat numbering)
heavy: B1 heavy with D58Y, Y61A
chain: B1 chain
light: B1 light
B25: CE115HA000 Y100Q one-arm antibody (antibody, human IgG1, kappa, L234A L235A, N297A, name in Kabat numbering)
heavy: B1 heavy with D58Y, Y106Q
chain: B1 chain
light: B1 light
B26: CE115HA000 Y100S one-arm antibody (antibody, human IgG1, kappa, L234A L235A, N297A, name in Kabat numbering)
heavy: B1 heavy with D58Y, Y106S
chain: B1 chain
light: B1 light
B27: CE115HA000 Y97S one-arm antibody (antibody, human IgG1, kappa, L234A L235A, N297A, name in Kabat numbering)
heavy: B1 heavy with D58Y, Y103S
chain: B1 chain
light: B1 light
B28: CE115HA000 Y58Q one-arm antibody (antibody, human IgG1, kappa, L234A L235A, N297A, name in Kabat numbering)
heavy: B1 heavy with D58Y, Y61Q
chain: B1 chain
light: B1 light
B29: CE115HA000 Y58D one-arm antibody (antibody, human IgG1, kappa, L234A L235A, N297A, name in Kabat numbering)
heavy: B1 heavy with D58Y, Y61D
chain: B1 chain
light: B1 light
B30: CE115HA000 Y58S one-arm antibody (antibody, human IgG1, kappa, L234A L235A, N297A, name in Kabat numbering)
heavy: B1 heavy with D58Y, Y61S
chain: B1 chain
light: B1 light
B31: CE115HA000 Y59S one-arm antibody (antibody, human IgG1, kappa, L234A L235A, N297A, name in Kabat numbering)
heavy: B1 heavy with D58Y, Y62S
chain: B1 chain
light: B1 light
B32: CE115HA000 Y100V one-arm antibody (antibody, human IgG1, kappa, L234A L235A, N297A, name in Kabat numbering)
heavy: B1 heavy with D58Y, Y106V
chain: B1 chain
light: B1 light
B33: CE115HA000 Y59D one-arm antibody (antibody, human IgG1, kappa, L234A L235A, N297A, name in Kabat numbering)
heavy: B1 heavy with D58Y, Y62D
chain: B1 chain
light: B1 light

Target: T1, CD3 epsilon homodimer protein (UniProt P07766 23-126)
T1 construct: immobilized on Sensor chip CM4 by amine coupling; also called CD3 (CD3 epsilon)
T1 sequence (P07766 23-126): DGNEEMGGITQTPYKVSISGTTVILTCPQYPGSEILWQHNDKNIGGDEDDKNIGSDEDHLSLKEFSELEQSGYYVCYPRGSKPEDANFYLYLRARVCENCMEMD
Test: SPR (Biacore T200), CD3 epsilon homodimer on CM4 chip, one-arm antibody as analyte, 25 C;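 further: homodimer attached to the sensor surface via amine coupling, HBS-EP+ used as running buffer during binding runs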

Binder	ratio of amounts bound (altered form / CE115HA000)
B1	0.45
B2	0.55
B3	0.26
B4	0.85
B5	1.07
B6	0.52
B7	0.9
B8	0.27
B9	0.11
B10	0.7
B11	1.03
B12	0.18
B13	0.31
B14	0.87
B15	0.48
B16	0.24
B17	0.27

Binder	ratio of amounts bound (altered form / CE115HA000)
B18	0.33
B19	0.66
B20	0.16
B21	1.07
B22	0.62
B23	0.3
B24	0.22
B25	0.8
B26	0.81
B27	0.18
B28	0.19
B29	0.11
B30	0.18
B31	0.94
B32	0.6
B33	0.7
